We go through six sequences from the supplement of paper PMC11246515.

± gives the standard deviation of the averaged measurements.

This series can be described thus: total protein half-life in vivo (active degradation + dilution); higher = more stable protein.
Where [1] appears, read: E. coli NCM3722 delta-clpP delta-lon delta-hslV, growth: N-lim chemostat, doubling time 6 h.
The mark [2] stands for this setting: E. coli NCM3722 delta-clpP, growth: N-lim chemostat, doubling time 6 h.
The mark [3] stands for this setting: E. coli NCM3722 delta-hslV, growth: N-lim chemostat, doubling time 6 h.
The mark [4] stands for this setting: E. coli NCM3722 delta-lon, growth: N-lim chemostat, doubling time 6 h.
Setting [5] is: E. coli NCM3722 delta-smpB, growth: N-lim chemostat, doubling time 6 h.
The mark [6] stands for this setting: wild type E. coli NCM3722, growth: C-lim chemostat, doubling time 3 h.
[7] abbreviates: wild type E. coli NCM3722, growth: C-lim chemostat, doubling time 6 h.
Setting [8] is: wild type E. coli NCM3722, growth: C-lim chemostat, doubling time 12 h.
The mark [9] stands for this setting: wild type E. coli NCM3722, growth: N-lim chemostat, doubling time 6 h.
Where [10] appears, read: wild type E. coli NCM3722, growth: N-lim chemostat, doubling time 12 h.
The mark [11] stands for this setting: wild type E. coli NCM3722, growth: P-lim chemostat, doubling time 12 h.
[12] abbreviates: wild type E. coli NCM3722, growth: P-lim chemostat, doubling time 6 h.

“MSQATSMRKRHRFNSRMTRIVLLISFIFFFGRFIYSSVGAWQHHQSKKEAQQSTLSVESPVQR”: the “total protein half-life in vivo” value reads like this: under setting [1], 4.55 h; under setting [2], 4.47 h; under setting [3], 4.32 h; under setting [4], 4.57 ± 0.97 h; under setting [5], 4.09 ± 0.36 h; under setting [6], 1.7 ± 0.046 h. In addition, the “total protein half-life in vivo” value turned out to be 3.19 h under setting [7]; 5.95 h under setting [8]; 3.526 ± 0.027 h under setting [9]; 7.56 ± 0.76 h under setting [10]; 4.32 ± 0.086 h under setting [11].

For the sequence “MSKIFEDNSLTIGHTPLVRLNRIGNGRILAKVESRNPSFSVKCRIGANMIWDAEKRGVLKPGVELVEPTSGNTGIALAYVAAARGYKLTLTMPETMSIERRKLLKALGANLVLTEGAKGMKGAIQKAEEIVASNPEKYLLLQQFSNPANPEIHEKTTGPEIWEDTDGQVDVFIAGVGTGGTLTGVSRYIKGTKGKTDLISVAVEPTDSPVIAQALAGEEIKPGPHKIQGIGAGFIPANLDLKLVDKVIGITNEEAISTARRLMEEEGILAGISSGAAVAAALKLQEDESFTNKNIVVILPSSGERYLSTALFADLFTEKELQQ [P0ABK5]”, the “total protein half-life in vivo” value under setting [1] worked out at 5.312 ± 0.029 h; the “total protein half-life in vivo” value under setting [2] was 5.14 ± 0.39 h; the “total protein half-life in vivo” value under setting [3] turned out to be 4.87 ± 0.096 h; the “total protein half-life in vivo” value under setting [4] is 5.03 ± 0.31 h; the “total protein half-life in vivo” value under setting [5] was determined as 4.53 ± 0.22 h; the “total protein half-life in vivo” value under setting [6] is 3.45 ± 0.18 h. For the same sequence, the “total protein half-life in vivo” value runs as follows: under setting [7], 6.1 ± 0.7 h; under setting [8], 11.8 ± 2.1 h; under setting [9], 4.68 ± 0.36 h; under setting [10], 8.22 ± 0.3 h; under setting [12], 5.72 ± 0.34 h; under setting [11], 13.1 ± 1.2 h.

Turning to “MGTTKHSKLLILGSGPAGYTAAVYAARANLQPVLITGMEKGGQLTTTTEVENWPGDPNDLTGPLLMERMHEHATKFETEIIFDHINKVDLQNRPFRLNGDNGEYTCDALIIATGASARYLGLPSEEAFKGRGVSACATCDGFFYRNQKVAVIGGGNTAVEEALYLSNIASEVHLIHRRDGFRAEKILIKRLMDKVENGNIILHTNRTLEEVTGDQMGVTGVRLRDTQNSDNIESLDVAGLFVAIGHSPNTAIFEGQLELENGYIKVQSGIHGNATQTSIPGVFAAGDVMDHIYRQAITSAGTGCMAALDAERYLDGLADAK [P0A9P4]”, the “total protein half-life in vivo” value amounted to 4.04 ± 0.12 h under setting [1]; 3.95 ± 0.56 h under setting [2]; 3.57 ± 0.13 h under setting [3]; 3.954 ± 0.035 h under setting [4]; 3.71 ± 0.12 h under setting [5]; 3.16 ± 0.09 h under setting [6]. The “total protein half-life in vivo” value is 5.74 ± 0.6 h under setting [7]; 10.2 ± 1.8 h under setting [8]; 3.8 ± 0.19 h under setting [9]; 6.33 ± 0.39 h under setting [10]; 5.05 ± 0.65 h under setting [12]; 10.7 ± 0.32 h under setting [11].

As for “MSYQPQTEAATSRFLNVEEAGKTLRIHFNDCGQGDETVVLLHGSGPGATGWANFSRNIDPLVEAGYRVILLDCPGWGKSDSVVNSGSRSDLNARILKSVVDQLDIAKIHLLGNSMGGHSSVAFTLKWPERVGKLVLMGGGTGGMSLFTPMPTEGIKRLNQLYRQPTIENLKLMMDIFVFDTSDLTDALFEARLNNMLSRRDHLENFVKSLEANPKQFPDFGPRLAEIKAQTLIVWGRNDRFVPMDAGLRLLSGIAGSELHIFRDCGHWAQWEHADAFNQLVLNFLARP”, the “total protein half-life in vivo” value worked out at 5.3 ± 0.56 h under setting [1]; 2.05 ± 0.77 h under setting [2]; 2.34 ± 0.87 h under setting [3]; 2.71 h under setting [4]; 2.32 ± 0.21 h under setting [5]; 1.42 ± 0.3 h under setting [6]. The “total protein half-life in vivo” value runs as follows: under setting [7], 2.67 ± 0.065 h; under setting [8], 4.07 h; under setting [9], 1.93 h; under setting [10], 3.13 h; under setting [12], 3.21 h; under setting [11], 5.69 ± 1.3 h.

As for “MAKSVPAIFLDRDGTINVDHGYVHEIDNFEFIDGVIDAMRELKKMGFALVVVTNQSGIARGKFTEAQFETLTEWMDWSLADRDVDLDGIYYCPHHPQGSVEEFRQVCDCRKPHPGMLLSARDYLHIDMAASYMVGDKLEDMQAAVAANVGTKVLVRTGKPITPEAENAADWVLNSLADLPQAIKKQQKPAQ”, the “total protein half-life in vivo” value worked out at 5.54 ± 0.29 h under setting [1]; 5.269 ± 0.022 h under setting [2]; 4.97 ± 0.51 h under setting [3]; 5.62 ± 0.25 h under setting [4]; 4.95 ± 0.083 h under setting [5]; 2.54 ± 0.091 h under setting [6]. In addition, the “total protein half-life in vivo” value amounted to 4.782 ± 0.0071 h under setting [7]; 13.4 ± 3.2 h under setting [8]; 5.05 ± 0.25 h under setting [9]; 8.7 ± 0.32 h under setting [10]; 5.49 ± 0.68 h under setting [12]; 11.4 ± 1.5 h under setting [11].

On to “MKPQVYHVDAFTSQPFRGNSAGVVFPADNLSEAQMQLIARELGHSETAFLLHSDDSDVRIRYFTPTVEVPICGHATVAAHYVRAKVLGLGNCTIWQTSLAGKHRVTIEKHNDDYRISLEQGTPGFEPPLEGETRAAIINALHLTEDDILPGLPIQVATTGHSKVMIPLKPEVDIDALSPDLNALTAISKKIGCNGFFPFQIRPGKNETDGRMFSPAIGIVEDPVTGNANGPMGAWLVHHNVLPHDGNVLRVKGHQGRALGRDGMIEVTVTIRDNQPEKVTISGTAVILFHAEWAIEL”, for which the “total protein half-life in vivo” value by setting is: under setting [1], over 8 h; under setting [2], 4.73 h; under setting [5], 6.56 h.
